Laboratory results published in US8444970B2, “Compositions and methods for treating ocular diseases and conditions” (Lpath, Inc., priority 2006, dated 2013).

Tests used:
[1] = Stability after thermochallenge (TM); assay type: physicochemical; details: thermochallenge of supernatants
Protocol: iii. Stability. The humanized variants were tested for stability after challenge at high temperature. The approximate midpoints of the thermal unfolding transitions (TM) were determined for every humanized variant by subjecting the supernatants to temperatures ranging from 60 to 74° C. These temperatures were chosen based on the denaturation profile observed for the murine antibody molecule after thermochallenging between a broad range of temperatures between 50 and 80° C. The binding properties of each variant were determined before and after thermochallenge.

[2] = system: macrophage and mast cell infiltration; assay: Murine infarct model, immune cell infiltration into the wound; assay type: in vivo, mouse; details: 25 mg/kg 48 hr after surgery, four days post-MI
Protocol: FIG. 9. […] SPHINGOMAB reduced immune-cell wound infiltration in vivo. Mice were subjected to MI, treated with saline or 25 mg/kg SPHINGOMAB 48 hr. after surgery and then sacrificed on day 4. SPHINGOMAB reduced macrophage (A) and mast cell (B) infiltration into the wound. Data are represented as fold decrease of saline-treated values.
Based upon the similarities of immune and inflammatory responses in CNV and CVD, the efficacy of SPHINGOMAB to mitigate immune cell infiltration into a wound was evaluated in a murine infarct model as an indication of SPHINGOMAB's potential effects in mitigating these damages during AMD [Vine, et al. (2005), Opthalmology., vol 112: 2076-80; and Seddon and Chen (2004), Int Opthalmol Clin., vol 44: 17-39]. Four days post-MI, macrophage and mast cell infiltration was evaluated using MAC-1 and MCG35 antibodies, respectively, within the area at risk.

perivascular fibrosis = assay: Permanent myocardial infarction model, cardiac scar formation (Masson's trichrome); assay type: in vivo, mouse; details: 25 mg/kg systemic, initiated 48 hrs after surgery
Protocol: Studies evaluated the efficacy of SPHINGOMAB to reduce cardiac scar formation after permanent myocardial infarction (MI) via ligation of the left descending coronary artery in mice. Systemic administration of 25 mg/kg SPHINGOMAB or saline was initiated 48 hrs after surgery. Antibody administration at 48 hr. was chosen to allow normal, reparative scar formation to occur during the early remodeling phase and permit beneficial, S1P-stimulated angiogenesis immediately after the MI. Two weeks after the infarct, mice were sacrificed and fibrosis was accessed by Masson's trichrome staining of the cardiac tissue. […] As a control for any non-specific wound-healing responses, sham animals underwent thoracotomy without coronary artery ligation (FIG. 7E).

[3] = system: ovarian cancer (OVCAR3) cells; assay: S1P-induced IL-8 release from ovarian cancer cells; assay type: cell-based; details: 1 uM S1P, 22 hours
Protocol: FIG. 12. FIG. 12 has two panels, A and B, that show data from in vitro cell assays performed using several humanized monoclonal antibody variants. […] As described in Example 16, below, SKOV3 cells were treated for 48 hr. with 500 nM Taxol (Tax) in the presence or absence of 500 nM S1P with huMAbHCLC3 (309), huMAbHCLC5 (308), muMAb S1P (muMAb), or non-specific IgG1 (NS) at a concentration of 1 μg/mL. Values represent means±SEM (n=3) with triplicates run for each data point. “NT” means not treated, and “Veh” stans for vehicle only. […] In the experiments described in detail in Example 16, below, 100,000 OVCAR3 cells/well were starved overnight and 1 uM S1P was added to the culture media alone or pre-incubated with 1 ug/ml of non-specific antibody (NS), pATH201+pATH309 (LC3), pATH201+pATH308 (LC5), pATH207+pATH309 (cysLC3), pATH207+pATH308 (cysLC5), and 0.1 ug/ml (M0.1), 1 ug/ml (M1) or 10 ug/ml (M10) of anti-S1P murine antibody. After 22 hours of incubation, cell supernatants were collected and IL-8 secretion was measured by ELISA using an R&D system Quantikine human CXCL8/IL-8 kit. In the figure “NT” refers to non-treated cells.
In parallel, all the variants were tested for their effects on S1P-induced cytokine release from cancer cells. S1P is known to elicit significant release of IL-8 into the cell-conditioned media from cancer cells.

Swiss 3T3 fibroblasts = assay: S1P-stimulated fibroblast proliferation (3H-thymidine incorporation); assay type: cell-based; details: 1 ug/mL antibody, 12-24 hr
Protocol: (§1) FIG. 7. […] See Example 7, below, for experimental details. […] In these experiments, fibroblasts were serum-starved and then treated with 0, 0.1, 0.5, or 1 μM S1P+/−1 μg/mL SPHINGOMAB for 12-24 hr. […] SPHINGOMAB neutralized each of these S1P effects. SPHINGOMAB reduced perivascular fibrosis in vivo in a murine model of a permanent myocardial infarction (E).
(§2) S1P makes profound contributions to wound healing by activating fibroblast migration, proliferation and collagen production; SPHINGOMAB neutralizes these effects. Several studies using multiple types of fibroblasts confirm S1P's ability to promote wound healing: 1) S1P increased Swiss-3T3 fibroblast proliferation as measured by ^3H-thymidine incorporation using standard methods (FIG. 7A); 2) S1P promoted the migration of cardiac fibroblasts in a standard scratch wound healing assay. […] In each of these assays, SPHINGOMAB neutralized S1P's. It is anticipated that ocular fibroblasts would respond similarly to S1P and SPHINGOMAB.

WI-38 lung fibroblasts = assay: S1P-induced differentiation into myofibroblasts (alpha-SMA immunoblot); assay type: cell-based; details: 1 ug/mL antibody, 12-24 hr
Protocol: as §1, §2

[4] = system: cardiac fibroblasts from transgenic mice expressing collagen-GFP; assay: S1P-stimulated collagen gene expression (collagen-GFP reporter); assay type: cell-based, mouse; details: 1 ug/mL antibody, 12-24 hr
Protocol: as §1, §2

B1: LT1002: murine anti-S1P monoclonal antibody, IgG1 kappa, hybridoma clone 306D326.26 (antibody, listed as Mus sp., V domains shown)
VH: QAHLQQSDAELVKPGASVKISCKVSGFIFIDHTIHWMKQRPEQGLEWIGCISPRHDITKYNEMFRGKATLTADKSSTTAYIQVNSLTFEDSAVYFCARGGFYGSTIWFDFWGQGTTLTVS
VL: ETTVTQSPASLSMAIGEKVTIRCITTTDIDDDMNWFQQKPGEPPNLLISEGNILRPGVPSRFSSSGYGTDFLFTIENMLSEDVADYYCLQSDNLPFTFGSGTKLEIK
TM (approximate midpoint of thermal unfolding transition) [1]: 65 °C | density of inflammatory macrophages [2]: dramatically attenuated | density of mast cells [2]: dramatically attenuated | perivascular fibrosis two weeks after infarct (perivascular fibrosis): almost complete abrogation | IL-8 release [3]: reduced IL-8 release | S1P-stimulated Swiss 3T3 fibroblast proliferation (Swiss 3T3 fibroblasts): neutralized | S1P-induced differentiation of WI-38 fibroblasts into myofibroblasts (WI-38 lung fibroblasts): neutralized | S1P-promoted collagen expression [4]: neutralized
